US12324447B2, “Animal feed compositions and uses thereof” (priority 2015, dated 2025)
“Also recorded” adds a separate entry of the source. Like-named read-outs stand apart in the source and are kept apart here. Marks after values point to notes of the source that are not given here.

Experiments:
[1] = tested on: Exiguobacterium undea (DSM14481); test: Lysozyme activity turbidity assay (optical density drop at 540 nm); format: biochemical, Exiguobacterium undae
[2] = tested on: Clostridium perfringens DSM756; format: cell-based; conditions: for Diameter of clearing zone (mm): lysozymes 100 μg/ml, Bacitracin zinc salt 50 μg/ml
[3] = Thermostability by Differential Scanning Calorimetry (DSC); format: physicochemical; conditions: 50 mM Na-acetate, DSC 200 K/hour
[4] = In vivo piglet trial (growth performance); design: species or system weaned piglets (Large-White x Redon); conditions: for ADFI (g/d), Mean / ADWG (g/d), Mean / FCR, Mean: SEQ ID NO: 257 50 mg/kg feed, VevoVital 5000 mg/kg feed; for ADFI, % relative NC / ADWG, % relative NC / FCR, % relative NC: relative to negative control
[5] = In vivo broiler trial (growth performance)
[6] = tested on: Micrococcus lysodeikticus ATTC No. 4698; test: Lysozyme activity turbidity assay (optical density drop at 540 nm)
[7] = tested on: M. lysodeikticus substrate; test: Temperature stability: residual activity by OD drop after heat treatment; conditions: for Residual activity (%): OD drop pH 6
[8] = Finisher (d 36-42), SEQ ID NO: 257 25 mg/kg feed, Avilamycin 10 mg/kg
[9] = Finisher (d 36-42), relative to unsupplemented control
[10] = Grower (d 22-36), SEQ ID NO: 257 25 mg/kg feed, Avilamycin 10 mg/kg
[11] = Grower (d 22-36), relative to unsupplemented control
[12] = Starter (d 1-22), SEQ ID NO: 257 25 mg/kg feed, Avilamycin 10 mg/kg
[13] = Starter (d 1-22), relative to unsupplemented control
[14] = Whole period (day 1 to day 42), SEQ ID NO: 257 25 mg/kg feed, Avilamycin 10 mg/kg
[15] = Whole period, relative to unsupplemented control

B1: SEQ ID NO: 257: mature GH24 lysozyme from Trichophaea saccata, comprising a GH24 domain and a lysozyme enhancing domain (LED) (protein, listed as Trichophaea saccata)
chain: YPVKTDLHCRSSPSTSASIVRTYSSGTEVQIQCQTTGTSVQGSNVWDKTQHGCYVADYYVKTGHSGIFTTKCGSSSGGGSCKPPPINAATVALIKEFEGFVPKPAPDPIGLPTVGYGHLCKTKGCKEVPYSFPLTQETATKLLQSDIKTFTSCVSNYVKDSVKLNDNQYGALASWAFNVGCGNVQTSSLIKRLNAGENPNTVAAQELPKWKYAGGKVMPGLVRRRNAEVALFKKPSSVQAHPPKC
modifications: mat_peptide (1)..(245)
Lysozyme activity against Exiguobacterium undea (in words) ([1]; OD drop assay): good activity | Lysozyme Activity against Exiguobacterium undae as measured by Optical Density Drop ([1]; assay pH 6): ++ | Diameter of clearing zone (mm) ([2]; Experiment 1, 1/2 MHB pH 6): 11 mm | Diameter of clearing zone (mm) ([2]; Experiment 1, 1/10 MHB pH 7): 9 mm | Diameter of clearing zone (mm) ([2]; Experiment 2, 1/10 MHB pH 7): 8 mm | Antimicrobial activity against Clostridium perfringens (in words) ([2]; RDA, tested conditions (1/10 MHB pH 7 and 1/2 MHB pH 6)): significant activity; also recorded: showed antimicrobial activity | Denaturation Temperature Td (° C.) ([3]; pH 4.5): 70.0 °C | Denaturation Temperature Td (° C.) ([3]; pH 5.5): 70.8 °C | Denaturation Temperature Td (° C.) ([3]; pH 6.5): 69.7 °C | ADFI (g/d), Mean ([4]; day 0-14): 333 g/day | ADWG (g/d), Mean ([4]; day 0-14): 265 g/day | FCR, Mean ([4]; day 0-14): 1.272^b | ADFI, % relative NC ([4]; day 0-14): 92.5% | ADWG, % relative NC ([4]; day 0-14): 91.4% | FCR, % relative NC ([4]; day 0-14): 102.6% | ADFI (g/d), Mean ([4]; day 0-42): 740^b g/d | ADWG (g/d), Mean ([4]; day 0-42): 538 g/day | FCR, Mean ([4]; day 0-42): 1.379^a | ADFI, % relative NC ([4]; day 0-42): 100.8% | ADWG, % relative NC ([4]; day 0-42): 107.8% | FCR, % relative NC ([4]; day 0-42): 92.9% | ADFI (g/d), Mean ([4]; day 14-42): 944^c g/d | ADWG (g/d), Mean ([4]; day 14-42): 674 g/day | FCR, Mean ([4]; day 14-42): 1.404^a | ADFI, % relative NC ([4]; day 14-42): 101.5% | ADWG, % relative NC ([4]; day 14-42): 111.8% | FCR, % relative NC ([4]; day 14-42): 90.9% | Improvement on FCR compared to the negative control ([4]; overall period (day 0 to day 42), lysozyme 50 mg/kg, VevoVital 5000 mg/kg): 7.1% | Improvement of ADWG compared to NC ([4]; starter period (days 14-42)): 11.8% | Improvement to FCR compared to NC ([4]; starter period, from day 15 to day 42, SEQ ID NO: 257 50 mg/kg, VevoVital (PC)): 9.1% | Improvement of ADWG compared to NC ([4]; whole period (day 0 to day 42)): 7.8% | FCR [5, 8]: 1.919 | Feed intake (g/b) [5, 8]: 1524 g/b | Weight gain (g/b) [5, 8]: 800 g/b | FCR, Relative to C (%) [5, 9]: 97.9% | Feed intake, Relative to C (%) [5, 9]: 102.5% | Weight gain, Relative to C (%) [5, 9]: 105.1% | FCR [5, 10]: 1.714 | Feed intake (g/b) [5, 10]: 2336 g/b | Weight gain (g/b) [5, 10]: 1364 g/b | FCR, Relative to C (%) [5, 11]: 99.5% | Feed intake, Relative to C (%) [5, 11]: 102.2% | Weight gain, Relative to C (%) [5, 11]: 102.7% | FCR [5, 12]: 1.414 | Feed intake (g/b) [5, 12]: 1603 g/b | Weight gain (g/b) [5, 12]: 1133 g/b | FCR, Relative to C (%) [5, 13]: 98.1% | Feed intake, Relative to C (%) [5, 13]: 101.6% | Weight gain, Relative to C (%) [5, 13]: 103.4% | EPEF [5, 14]: 425 | FCR [5, 14]: 1.657 | Feed intake (g/b) [5, 14]: 5450 g/b | Motality [5, 14]: 10.0 | Weight gain (g/b) [5, 14]: 3290 g/b | EPEF, Relative to C (%) [5, 15]: 101.7% | FCR, Relative to C (%) [5, 15]: 98.6% | Feed intake, Relative to C (%) [5, 15]: 101.9% | Weight gain, Relative to C (%) [5, 15]: 103.3% | EPEF improvement compared to NC diet ([5]; whole period, GH24 lysozyme 25 mg/kg): 1.7% | FCR improvement compared to NC diet ([5]; whole period, GH24 lysozyme 25 mg/kg, Avilamycin 10 mg/kg): 1.4% | Lysozyme activity against Micrococcus lysodeikticus (in words) ([6]; OD drop assay): good activity | Lysozyme Activity against Micrococcus lysodeikticus as measured by Optical Density Drop ([6]; assay pH 6): ++ | Time for which the lysozyme is stable ([7]; at temperatures as high as 99° C.): at least 90 seconds | Residual activity (%) ([7]; heat treatment 30 sec at 60 °C): 93% | Residual activity (%) ([7]; heat treatment 30 sec at 65 °C): 99% | Residual activity (%) ([7]; heat treatment 30 sec at 70 °C): 94% | Residual activity (%) ([7]; heat treatment 30 sec at 75 °C): 101% | Residual activity (%) ([7]; heat treatment 30 sec at 80 °C): 94% | Residual activity (%) ([7]; heat treatment 30 sec at 85 °C): 98% | Residual activity (%) ([7]; heat treatment 30 sec at 90 °C): 94% | Residual activity (%) ([7]; heat treatment 30 sec at 95 °C): 98% | Residual activity (%) ([7]; heat treatment 30 sec at 99 °C): 93% | Residual activity (%) ([7]; heat treatment 60 sec at 60 °C): 99% | Residual activity (%) ([7]; heat treatment 60 sec at 65 °C): 97% | Residual activity (%) ([7]; heat treatment 60 sec at 70 °C): 93% | Residual activity (%) ([7]; heat treatment 60 sec at 75 °C): 96% | Residual activity (%) ([7]; heat treatment 60 sec at 80 °C): 98% | Residual activity (%) ([7]; heat treatment 60 sec at 85 °C): 94% | Residual activity (%) ([7]; heat treatment 60 sec at 90 °C): 99% | Residual activity (%) ([7]; heat treatment 60 sec at 95 °C): 94% | Residual activity (%) ([7]; heat treatment 60 sec at 99 °C): 97% | Residual activity (%) ([7]; heat treatment 90 sec at 60 °C): 96% | Residual activity (%) ([7]; heat treatment 90 sec at 65 °C): 99% | Residual activity (%) ([7]; heat treatment 90 sec at 70 °C): 98% | Residual activity (%) ([7]; heat treatment 90 sec at 75 °C): 98% | Residual activity (%) ([7]; heat treatment 90 sec at 80 °C): 97% | Residual activity (%) ([7]; heat treatment 90 sec at 85 °C): 100% | Residual activity (%) ([7]; heat treatment 90 sec at 90 °C): 97% | Residual activity (%) ([7]; heat treatment 90 sec at 95 °C): 102% | Residual activity (%) ([7]; heat treatment 90 sec at 99 °C): 89%
